Consider two molecules from article PMC9513094.

The target of one assay is GFP-TRB1 (Arabidopsis) (UniProt Q8VWK4). Description: FRET or BRET; FRET-FLIM (TCSPC); GFP fusion as donor, RFP fusion as acceptor, co-expressed in plant cells; donor alone as control; 10 images a series. In general terms: Bioluminescence resonance energy transfer reports proximity on the nanometre scale.
Another assay addresses GFP-TRB2 (Arabidopsis) (UniProt Q9FJW5). The assay is described as above.
UniProt Q9FJW5, sequence (Q9FJW5 whole entry): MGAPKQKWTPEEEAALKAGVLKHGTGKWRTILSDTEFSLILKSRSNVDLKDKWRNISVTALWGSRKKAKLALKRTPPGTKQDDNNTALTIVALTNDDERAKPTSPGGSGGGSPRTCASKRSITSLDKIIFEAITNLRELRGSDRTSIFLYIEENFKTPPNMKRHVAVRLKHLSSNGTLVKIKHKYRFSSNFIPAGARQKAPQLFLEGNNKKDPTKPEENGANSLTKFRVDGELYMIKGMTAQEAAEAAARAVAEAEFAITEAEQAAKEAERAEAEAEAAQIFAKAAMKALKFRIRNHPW

UniProt Q8VWK4, sequence (Q8VWK4 whole entry, the tested form may be a part): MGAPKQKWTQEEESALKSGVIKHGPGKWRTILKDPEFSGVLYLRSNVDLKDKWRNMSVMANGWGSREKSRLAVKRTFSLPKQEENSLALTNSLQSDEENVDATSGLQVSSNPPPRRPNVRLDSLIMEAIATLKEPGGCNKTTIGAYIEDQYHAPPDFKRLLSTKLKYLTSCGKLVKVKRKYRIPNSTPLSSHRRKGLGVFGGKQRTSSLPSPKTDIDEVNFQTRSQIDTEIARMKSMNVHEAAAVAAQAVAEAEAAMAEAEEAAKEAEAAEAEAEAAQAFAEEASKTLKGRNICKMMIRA

B1: RFP-ATG8e (natural protein)
chain: MNKGSIFKMDNDFEKRKAEAGRIREKYPDRIPVIVEKAEKSEVPNIDKKKYLVPSDLTVGQFVYVIRKRIKLSAEKAIFIFVDNVLPPTGELMSSVYEDKKDEDGFLYITYSGENTFG
Regarding B1, the fluorescence lifetime of the GFP donor in the presence of the RFP acceptor in the assay with GFP-TRB1 (Arabidopsis) came out at 2.3 ns.

B2: RFP-VAP27-1 (natural protein)
chain: MSNIDLIGMSNRDLIGMSNSELLTVEPLDLQFPFELKKQISCSLYLTNKTDNNVAFKVKTTNPKKYCVRPNTGVVLPRSTCEVLVTMQAQKEAPSDMQCKDKFLLQGVIASPGVTAKEVTPEMFSKEAGHRVEETKLRVTYVAPPRPPSPVHEGSEEGSSPRASVSDNGHGSEFSFERFIVDNKAGHQENTSEARALITKLTEEKQSAIQLNNRLQRELDQLRRESKKSQSGGIPFMYVLLVGLIGLILGYIMKRT
In the case of B2, the fluorescence lifetime of the GFP donor in the presence of the RFP acceptor in the assay with GFP-TRB2 (Arabidopsis) amounted to 2.21 ns; in the assay with GFP-TRB1 (Arabidopsis), 2.31 ns.
